Publication PMC11672753 (2024)

The binders below were run against neonatal Fc receptor FcRn (FcRn-SmBiT) (UniProt P55899 24-297) (assay: competition with IgG-LgBiT tracer (Lumit FcRn assay)).

| Binder | IC50 |
| --- | --- |
| S15-FX (Fc fusion, N-linked glycan at Asn297 devoid of core α-1,3-fucose and β-1,2-xylose; predominantly complex GnGn (52%–54%) and M5-M9 high mannose type (22%–24%); ~15% unglycosylated sites) chain 1: QVQLLESGGGLVQPGGSLRLSCAASGFTFSSYAMSWVRQAPGKGLEWASAISGSGGSTYYADSVEGRFTISRDNSKNTLYLQMNSLRAEDTAVYYCAKDTGYCGDDCYIKLIRGGPDYWGQGTLVTVSS chain 2: DIVMTQSPLSLPVTLGQPASISCRSSQSLVYSDGNTFLNWFQQRPGQSPRRLIYQVSNRDSGVPDRFSGSGSGTDFTLKISRVEAEDVGVYYCMQGTHWPRTFGQGTKLEIK | 19.5 µg/mL |
| S15 (plant-produced COVA2-15, single-chain (sc)Fv-Fc format) (Fc fusion, N-linked glycan at Asn297, major glycoforms complex type with α-1,3 fucose and β-1,2-xylose (GnGnXF)) chain 1: QVQLLESGGGLVQPGGSLRLSCAASGFTFSSYAMSWVRQAPGKGLEWASAISGSGGSTYYADSVEGRFTISRDNSKNTLYLQMNSLRAEDTAVYYCAKDTGYCGDDCYIKLIRGGPDYWGQGTLVTVSS chain 2: DIVMTQSPLSLPVTLGQPASISCRSSQSLVYSDGNTFLNWFQQRPGQSPRRLIYQVSNRDSGVPDRFSGSGSGTDFTLKISRVEAEDVGVYYCMQGTHWPRTFGQGTKLEIK | 32.8 µg/mL |

Second part, the binder after the results:

| IC50 | Binder |
| --- | --- |
| 8.58 µg/mL | S15-HDEL (Fc fusion, N-linked glycan at Asn297: 88%–92% high-mannose-type N-glycans, less than 2% with α-1,3-fucose and β-1,2-xylose) chain 1: QVQLLESGGGLVQPGGSLRLSCAASGFTFSSYAMSWVRQAPGKGLEWASAISGSGGSTYYADSVEGRFTISRDNSKNTLYLQMNSLRAEDTAVYYCAKDTGYCGDDCYIKLIRGGPDYWGQGTLVTVSS chain 2: DIVMTQSPLSLPVTLGQPASISCRSSQSLVYSDGNTFLNWFQQRPGQSPRRLIYQVSNRDSGVPDRFSGSGSGTDFTLKISRVEAEDVGVYYCMQGTHWPRTFGQGTKLEIK |
| 11.8 µg/mL | S15-YTE (Fc fusion, N-linked glycan at Asn297, absent in a larger percentage (>10%) of antibodies) chain 1: QVQLLESGGGLVQPGGSLRLSCAASGFTFSSYAMSWVRQAPGKGLEWASAISGSGGSTYYADSVEGRFTISRDNSKNTLYLQMNSLRAEDTAVYYCAKDTGYCGDDCYIKLIRGGPDYWGQGTLVTVSS chain 2: DIVMTQSPLSLPVTLGQPASISCRSSQSLVYSDGNTFLNWFQQRPGQSPRRLIYQVSNRDSGVPDRFSGSGSGTDFTLKISRVEAEDVGVYYCMQGTHWPRTFGQGTKLEIK |
